For ten molecules, Kd results are on record in US20250332264A1, “GhR-BINDING PEPTIDE AND COMPOSITION COMPRISING SAME” (priority 2021, published 2025).

Starred links: 1 amine or outer side, 2 acyl side, 3 side chain; linkers in the order of their positions; H or OH if unused. Positions of bridges follow the written chain, without caps; N, C: chain ends. Non-standard residues stand in square brackets, D forms with d. Groups on a side chain read outwards from the residue. No end group written: not given here. *: point of attachment. Biph4pCO = 4-([1,1′-biphenyl]-4-yl)butanoic acid, O=C(CCCc1ccc(-c2ccccc2)cc1)*; Trp(1-CH2CO) = O=C([C@H](Cc1cn(CC(=O)[*:3])c2ccccc12)N[*:1])[*:2]; Butanoyl(4-(4-I-phenyl)) = O=C(CCCc1ccc(I)cc1)*; Trp(5-OH) = N[C@@H](Cc1c[nH]c2ccc(O)cc12)C(=O)O; Phe(4-COOH) = N[C@@H](Cc1ccc(C(=O)O)cc1)C(=O)O; Butanoyl(4-(4-MePh)) = Cc1ccc(CCCC(=O)*)cc1; C17 diacid = O=C(O)CCCCCCCCCCCCCCCC(=O)*; C15 diacid = O=C(O)CCCCCCCCCCCCCC(=O)*; Hexanoyl(6-Ph) = O=C(CCCCCc1ccccc1)*; Butanoyl(4-Ph) = O=C(CCCc1ccccc1)*; W5H = not defined here; Aib = CC(C)(N)C(=O)O

The target in this experiment is Recombinant human GhR-Fc protein (R&D Systems) (human) (UniProt P10912). Kind of experiment: SPR, Biacore T200, single-cycle kinetics, GhR-Fc immobilised on CM5.
Sequence of Recombinant human GhR-Fc protein (R&D Systems) (human) (P10912 19-264 limits assumed): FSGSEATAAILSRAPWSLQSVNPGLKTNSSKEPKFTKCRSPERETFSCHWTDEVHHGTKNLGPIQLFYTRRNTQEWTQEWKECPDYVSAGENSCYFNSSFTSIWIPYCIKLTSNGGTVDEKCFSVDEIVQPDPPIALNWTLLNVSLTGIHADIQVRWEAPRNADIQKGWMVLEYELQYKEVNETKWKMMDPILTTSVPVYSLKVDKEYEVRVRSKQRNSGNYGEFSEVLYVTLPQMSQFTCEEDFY

B1: GhR_PD_248 (peptide)
peptide: {CH2CO}-[Phe(4-COOH)]KVVSN[Trp(1-CH2CO)][Phe(4-COOH)]K[Trp(5-OH)][Aib]VCGP[dS][dS][dS]K([Glu-Glu-Butanoyl(4-(4-I-phenyl))])-NH2
modifications: thioether N-13; lactam 2-7; not fully specified (residue 2)
B1: the equilibrium dissociation constant (Kd) came out at 1.88 nM.

B2: GhR_PD_245 (peptide)
peptide: {CH2CO}-[Phe(4-COOH)]KVVSN[Trp(1-CH2CO)][Phe(4-COOH)]K[Trp(5-OH)][Aib]VCK([Glu-Glu-Butanoyl(4-(4-MePh))])-NH2
modifications: thioether N-13; lactam 2-7; not fully specified (residue 2)
Turning to B2, the dissociation constant Kd was 1.95 nM.

B3: GhR_PD_269 (peptide)
peptide: {CH2CO}-[Phe(4-COOH)]KVVSN[Trp(1-CH2CO)][Phe(4-COOH)]K[Trp(5-OH)][Aib]VCK([Glu-Glu-C15 diacid])-NH2
modifications: thioether N-13; lactam 2-7; not fully specified (residue 2)
With B3, the Kd was 3.1 nM.

B4: GhR_PD_270 (peptide)
peptide: {CH2CO}-[Phe(4-COOH)]KVVSN[Trp(1-CH2CO)][Phe(4-COOH)]K[Trp(5-OH)][Aib]VCK([Glu-Glu-C17 diacid])-NH2
modifications: thioether N-13; lactam 2-7; not fully specified (residue 2)
As to B4, the Kd stood at 2.53 nM.

B5: GhR_PD_218 (peptide)
peptide: {CH2CO}-[Phe(4-COOH)]KVVSN[Trp(1-CH2CO)][Phe(4-COOH)]K[Trp(5-OH)][Aib]VCK([Glu-Glu-Butanoyl(4-Ph)])-NH2
modifications: thioether N-13; lactam 2-7; not fully specified (residue 2)
For B5, the Kd came to 2.03 nM.

B6: GhR_PD_254 (peptide)
peptide: {CH2CO}-[Phe(4-COOH)]KVVSN[Trp(1-CH2CO)][Phe(4-COOH)]K[Trp(5-OH)][Aib]VCK([Glu-Glu-Hexanoyl(6-Ph)])-NH2
modifications: thioether N-13; lactam 2-7; not fully specified (residue 2)
With B6, the dissociation constant Kd turned out to be 1.93 nM.

B7: GhR_PD_253 (peptide)
peptide: {CH2CO}-[Phe(4-COOH)]KVVSN[Trp(1-CH2CO)][Phe(4-COOH)]K[Trp(5-OH)][Aib]VCK([Glu-Glu-Biph4pCO])-NH2
modifications: thioether N-13; lactam 2-7; not fully specified (residue 2)
Regarding B7, the Kd was 1.61 nM.

B8: GhR_PD_267 (peptide)
peptide: {CH2CO}-[Phe(4-COOH)]KVVSN[Trp(1-CH2CO)][Phe(4-COOH)]K[Trp(5-OH)][Aib]VCK([Glu-Glu-Ac])-NH2
modifications: thioether N-13; lactam 2-7; not fully specified (residue 2)
Consider B8, for which the equilibrium dissociation constant (Kd) is 3.51 nM.

B9: GhR_PD_247 (peptide)
peptide: {CH2CO}-[Phe(4-COOH)]KVVSN[Trp(1-CH2CO)][Phe(4-COOH)]K[Trp(5-OH)][Aib]VCK([Glu-Butanoyl(4-(4-I-phenyl))])-NH2
modifications: thioether N-13; lactam 2-7; not fully specified (residue 2)
Take B9: the dissociation constant (Kd) turned out to be 1.36 nM.

B10: GhR_PD_233 (peptide)
peptide: {CH2CO}-[F4COO][MeK]VVSN[W1aa][F4COO]K[W5H][Aib]VCK
modifications: thioether N-13; lactam 2-7; reading uncertain; also: albumin binder E-E-cC14COO on the side-chain amino group of the linker lysine, which lysine is not given here
Consider B10, for which the Kd was determined as 2.85 nM.

As a reminder, the Kd is the equilibrium constant for the complex coming apart.
